# Measured values reported in PMC11243334, “Synthesis and Evaluation of the First ^68Ga-Labeled C-Terminal Hydroxamate-Derived Gastrin-Releasing Peptide Receptor-Targeted Tracers for Cancer Imaging with Positron Emission Tomography” (Molecules, 2024).
# Where two headings read alike, the source gives them in different places.
# What was measured:
# physchem = details: n-octanol/DPBS, pH 7.4
# Protocol: LogD7.4 values of [^68Ga]Ga-LW02075, [^68Ga]Ga-LW02050, and [^68Ga]Ga-SB3 were measured via the shake flask method. An aliquot of the ^68Ga-labeled tracer (~1.85 MBq) was added to a 15 mL falcon tube containing 3 mL of n-octanol and 3 mL of DPBS (pH 7.4) followed by 1 min of vortex (n = 3). After that, the mixture was centrifuged at 5000 rpm for 10 min, and samples of the n-octanol (1 mL) and buffer (1 mL) layers were collected and counted on a Perkin Elmer (Waltham, MA, USA) Wizard2 2480 automatic gamma counter. The LogD7.4 values of [^68Ga]Ga-LW02075, [^68Ga]Ga-LW02050, and [^68Ga]Ga-SB3 were calculated following the equation: LogD7.4 = log10[(counts in the n-octanol phase)/(counts in the buffer phase)].
# [1] = Ex vivo biodistribution in PC-3 tumor-bearing mice; details: male, mouse, iv, total radioactivity, mean ± SD, n = 4; for tissue uptake at 1 h: NOD.Cg-Rag1^tm1Mom Il2rg^tm1Wjl/SzJ (NRG); for tissue to tissue ratio at 1 h: NOD.Cg-Rag1tm1Mom Il2rgtm1Wjl/SzJ (NRG)
# Protocol: (§1) Biodistribution studies were conducted for ^68Ga-labeled SB3, LW02075 and LW02050 in PC-3 tumor-bearing mice (n = 4).
# (§2) Imaging and biodistribution studies were performed on male NOD.Cg-Rag1^tm1Mom Il2rg^tm1Wjl/SzJ (NRG) mice following previously published procedures. The experiments were conducted following the guidelines established by the Canadian Council on Animal Care and approved by Animal Ethics Committee of the University of British Columbia. The mice were sedated (2.5% isoflurane in oxygen) and injected with 5 × 10^6 PC-3 cells (100 µL; 1:1 PBS/Matrigel) subcutaneously behind the left shoulder. The tumor-bearing mice were used for PET/CT imaging and biodistribution studies when the tumor grew to 5–8 mm in diameter.
# (§3) For biodistribution studies, the mice were injected with the radiotracer (~2–4 MBq), as described above. Blocking of [^68Ga]Ga-LW02075 and [^68Ga]Ga-LW02050 was conducted by co-injection with 100 μg nonradioactive Ga-LW02075 and Ga-LW02050, respectively, through a lateral caudal tail vein under anaesthesia. At 1 h post injection, the mice were sedated and euthanized by CO2 inhalation. Blood was collected via cardiac puncture, and organs/tissues of interest were collected, weighed, and counted on a Perkin Elmer (Waltham, MA, USA) Wizard2 2480 automatic gamma counter.
# PC-3 tumor-bearing mice = test: Ex vivo biodistribution in PC-3 tumor-bearing mice; details: 1 h post injection, 100 μg nonradioactive standard co-injected
# Protocol: as §1, §2, §3
# PC-3 tumor xenografts = test: PET/CT imaging in mice bearing PC-3 tumor xenografts; assay type: in vivo; details: 1 h post injection
# Protocol: as §2
# PET/CT imaging experiments were performed on a Siemens (Knoxville, TN, USA) Inveon micro PET/CT scanner. Each tumor-bearing mouse was injected with ~3–6 MBq of ^68Ga-labeled tracer through a lateral caudal tail vein under anaesthesia. At around 50 min post injection, a 10 min CT scan was obtained first for localization and attenuation correction after segmentation for reconstructing the PET image, followed by a 10 min static PET scan.
structure (smiles),measurement,setting,value
"CC(C)C[C@H](NC(=O)[C@H](Cc1c[nH]cn1)NC(=O)CNC(=O)[C@@H](NC(=O)[C@H](C)NC(=O)[C@H](Cc1c[nH]c2ccccc12)NC(=O)[C@H](CCC(N)=O)NC(=O)[C@@H](Cc1ccccc1)NC(=O)CN1CCC(NC(=O)CN2CCN(CC(=O)O)CCN(CC(=O)O)CCN(CC(=O)O)CC2)CC1)C(C)C)C(=O)NO [[^68Ga]Ga-LW02050, [^68Ga]Ga-DOTA-Pip-D-Phe-Gln-Trp-Ala-Val-Gly-His-Leu-NHOH, metal not drawn]",logD,physchem,-2.3 ± 0.14
same,tissue uptake at 1 h,"[1]; PC-3 tumor, 1 h blocked: co-injected with 100 µg nonradioactive Ga-complexed standard, read-out: PC-3 tumor uptake, blocked",0.42 ± 0.08 %ID/g
same,tissue uptake at 1 h,"[1]; PC-3 tumor, 1 h post injection, read-out: PC-3 tumor uptake",5.38 ± 1 %ID/g
same,tissue uptake at 1 h,"[1]; adrenal glands, 1 h blocked: co-injected with 100 µg nonradioactive Ga-complexed standard, read-out: Adrenal glands uptake, blocked",0.05 ± 0.05 %ID/g
same,tissue uptake at 1 h,"[1]; adrenal glands, 1 h post injection, read-out: Adrenal glands uptake",0.43 ± 0.15 %ID/g
same,tissue uptake at 1 h,"[1]; blood, 1 h blocked: co-injected with 100 µg nonradioactive Ga-complexed standard, read-out: Blood uptake, blocked",0.34 ± 0.06 %ID/g
same,tissue uptake at 1 h,"[1]; blood, 1 h post injection, read-out: Blood uptake",0.57 ± 0.11 %ID/g
same,tissue uptake at 1 h,"[1]; bone, 1 h blocked: co-injected with 100 µg nonradioactive Ga-complexed standard, read-out: Bone uptake, blocked",0.03 ± 0.03 %ID/g
same,tissue uptake at 1 h,"[1]; bone, 1 h post injection, read-out: Bone uptake",0.14 ± 0.06 %ID/g
same,tissue uptake at 1 h,"[1]; brain, 1 h blocked: co-injected with 100 µg nonradioactive Ga-complexed standard, read-out: Brain uptake, blocked",0.01 %ID/g
same,tissue uptake at 1 h,"[1]; brain, 1 h post injection, read-out: Brain uptake",0.03 ± 0.01 %ID/g
same,tissue uptake at 1 h,"[1]; fat, 1 h blocked: co-injected with 100 µg nonradioactive Ga-complexed standard, read-out: Fat uptake, blocked",0.04 ± 0.01 %ID/g
same,tissue uptake at 1 h,"[1]; fat, 1 h post injection, read-out: Fat uptake",0.05 ± 0.01 %ID/g
same,tissue uptake at 1 h,"[1]; heart, 1 h blocked: co-injected with 100 µg nonradioactive Ga-complexed standard, read-out: Heart uptake, blocked",0.1 ± 0.02 %ID/g
same,tissue uptake at 1 h,"[1]; heart, 1 h post injection, read-out: Heart uptake",0.19 ± 0.03 %ID/g
same,tissue uptake at 1 h,"[1]; kidneys, 1 h blocked: co-injected with 100 µg nonradioactive Ga-complexed standard, read-out: Kidneys uptake, blocked",1.95 ± 0.44 %ID/g
same,tissue uptake at 1 h,"[1]; kidneys, 1 h post injection, read-out: Kidneys uptake",2.88 ± 0.68 %ID/g
same,tissue uptake at 1 h,"[1]; large intestine, 1 h blocked: co-injected with 100 µg nonradioactive Ga-complexed standard, read-out: Large intestine uptake, blocked",0.19 ± 0.17 %ID/g
same,tissue uptake at 1 h,"[1]; large intestine, 1 h post injection, read-out: Large intestine uptake",0.34 ± 0.15 %ID/g
same,tissue uptake at 1 h,"[1]; liver, 1 h blocked: co-injected with 100 µg nonradioactive Ga-complexed standard, read-out: Liver uptake, blocked",0.29 ± 0.2 %ID/g
same,tissue uptake at 1 h,"[1]; liver, 1 h post injection, read-out: Liver uptake",0.44 ± 0.05 %ID/g
same,tissue uptake at 1 h,"[1]; lungs, 1 h blocked: co-injected with 100 µg nonradioactive Ga-complexed standard, read-out: Lungs uptake, blocked",0.33 ± 0.09 %ID/g
same,tissue uptake at 1 h,"[1]; lungs, 1 h post injection, read-out: Lungs uptake",0.55 ± 0.06 %ID/g
same,tissue uptake at 1 h,"[1]; muscle, 1 h blocked: co-injected with 100 µg nonradioactive Ga-complexed standard, read-out: Muscle uptake, blocked",0.06 ± 0.02 %ID/g
same,tissue uptake at 1 h,"[1]; muscle, 1 h post injection, read-out: Muscle uptake",0.13 ± 0.02 %ID/g
same,tissue uptake at 1 h,"[1]; pancreas, 1 h blocked: co-injected with 100 µg nonradioactive Ga-complexed standard, read-out: Pancreas uptake, blocked",0.1 ± 0.03 %ID/g
same,tissue uptake at 1 h,"[1]; pancreas, 1 h post injection, read-out: Pancreas uptake",0.53 ± 0.11 %ID/g
same,tissue uptake at 1 h,"[1]; small intestine, 1 h blocked: co-injected with 100 µg nonradioactive Ga-complexed standard, read-out: Small intestine uptake, blocked",0.26 ± 0.09 %ID/g
same,tissue uptake at 1 h,"[1]; small intestine, 1 h post injection, read-out: Small intestine uptake",0.43 ± 0.04 %ID/g
same,tissue uptake at 1 h,"[1]; spleen, 1 h blocked: co-injected with 100 µg nonradioactive Ga-complexed standard, read-out: Spleen uptake, blocked",0.12 ± 0.02 %ID/g
same,tissue uptake at 1 h,"[1]; spleen, 1 h post injection, read-out: Spleen uptake",0.25 ± 0.04 %ID/g
same,tissue uptake at 1 h,"[1]; stomach, 1 h blocked: co-injected with 100 µg nonradioactive Ga-complexed standard, read-out: Stomach uptake, blocked",0.04 ± 0.02 %ID/g
same,tissue uptake at 1 h,"[1]; stomach, 1 h post injection, read-out: Stomach uptake",0.34 ± 0.14 %ID/g
same,tissue uptake at 1 h,"[1]; testes, 1 h blocked: co-injected with 100 µg nonradioactive Ga-complexed standard, read-out: Testes uptake, blocked",0.13 ± 0.05 %ID/g
same,tissue uptake at 1 h,"[1]; testes, 1 h post injection, read-out: Testes uptake",0.17 ± 0.05 %ID/g
same,tissue to tissue ratio at 1 h,"[1]; tumor and bone, 1 h blocked: co-injected with 100 µg nonradioactive Ga-complexed standard, read-out: Tumor/bone uptake ratio, blocked",27.1 ± 18.1
same,tissue to tissue ratio at 1 h,"[1]; tumor and bone, 1 h post injection, read-out: Tumor/bone uptake ratio",43.6 ± 22.6
same,tissue to tissue ratio at 1 h,"[1]; tumor and kidney, 1 h blocked: co-injected with 100 µg nonradioactive Ga-complexed standard, read-out: Tumor/kidney uptake ratio, blocked",0.22 ± 0.05
same,tissue to tissue ratio at 1 h,"[1]; tumor and kidney, 1 h post injection, read-out: Tumor/kidney uptake ratio",1.92 ± 0.41
same,tissue to tissue ratio at 1 h,"[1]; tumor and muscle, 1 h blocked: co-injected with 100 µg nonradioactive Ga-complexed standard, read-out: Tumor/muscle uptake ratio, blocked",8.28 ± 2.7
same,tissue to tissue ratio at 1 h,"[1]; tumor and muscle, 1 h post injection, read-out: Tumor/muscle uptake ratio",44.4 ± 14.1
same,tissue to tissue ratio at 1 h,"[1]; tumor and pancreas, 1 h blocked: co-injected with 100 µg nonradioactive Ga-complexed standard, read-out: Tumor/pancreas uptake ratio, blocked",4.3 ± 0.83
same,tissue to tissue ratio at 1 h,"[1]; tumor and pancreas, 1 h post injection, read-out: Tumor/pancreas uptake ratio",10.7 ± 4.17
same,tissue to tissue ratio at 1 h,"[1]; tumor and whole blood, 1 h blocked: co-injected with 100 µg nonradioactive Ga-complexed standard, read-out: Tumor/blood uptake ratio, blocked",1.23 ± 0.14
same,tissue to tissue ratio at 1 h,"[1]; tumor and whole blood, 1 h post injection, read-out: Tumor/blood uptake ratio",9.68 ± 2.84
same,Reduction of average pancreas uptake by co-injection of nonradioactive standard,PC-3 tumor-bearing mice,81%
same,Reduction of average uptake in PC-3 tumor xenografts by co-injection of nonradioactive standard,PC-3 tumor-bearing mice,92%
same,Uptake in PC-3 tumor xenograft in PET image with blocking,PC-3 tumor xenografts; co-injection with 100 μg nonradioactive standard,close to the background level
same,Excretion pathway in PET images,PC-3 tumor xenografts; mice,excreted primarily through the renal pathway
same,Pancreas in PET images,PC-3 tumor xenografts; mice,nearly invisible
same,Visualization of PC-3 tumor xenografts in PET images,"PC-3 tumor xenografts; ~3–6 MBq i.v., mice",clearly visualized
